Measured values taken from the supplement of paper PMC9112550, “Optimization of the antimicrobial peptide Bac7 by deep mutational scanning” (BMC Biology, 2022).

Tested on: Escherichia coli TOP10
Test: shrunken log2 fold change of peptide-encoding DNA abundance (4.5 h post-induction vs induction); higher = less antimicrobial activity (less host growth inhibition)
Conditions: time post-induction: 4.5 h; library: site-saturation at positions 5, 18, 19, 20
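Further: peptides expressed intracellularly from a pBAD plasmid library in pooled LB shake-flask culture, induced with 0.3% L-arabinose, DNA abundance read by NGS, three biological replicates, DESeq2 with apeglm shrinkage.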

| Sequence | shrunken log2 fold change |
| --- | --- |
| RRIRGRPPRLPRPRPRPLYRPRP | 1.11 |
| RRIRCRPPRLPRPRPRPTMIPRP | -0.922 |
| RRIRARPPRLPRPRPRPTNDPRP | 0.297 |
| RRIRIRPPRLPRPRPRPWRDPRP | -0.0858 |
| RRIRNRPPRLPRPRPRPFKTPRP | -0.0614 |
| RRIRFRPPRLPRPRPRPVGEPRP | 0.29 |
| RRIRIRPPRLPRPRPRPGRCPRP | -0.0543 |
| RRIRIRPPRLPRPRPRPWYRPRP | -0.678 |
| RRIRIRPPRLPRPRPRPLLIPRP | -0.485 |
| RRIRTRPPRLPRPRPRPNQHPRP | -0.354 |
| RRIRFRPPRLPRPRPRPHGRPRP | 0.187 |
| RRIRDRPPRLPRPRPRPRKDPRP | -0.108 |
| RRIRMRPPRLPRPRPRPRKHPRP | 0.826 |
| RRIRERPPRLPRPRPRPTGQPRP | -0.0359 |
| RRIRFRPPRLPRPRPRPAEHPRP | 0.26 |
| RRIRNRPPRLPRPRPRPICVPRP | 0.111 |
| RRIRTRPPRLPRPRPRPQVFPRP | -0.0243 |
| RRIRGRPPRLPRPRPRPERGPRP | 1.72 |
| RRIRQRPPRLPRPRPRPCLKPRP | -0.286 |
| RRIRHRPPRLPRPRPRPTTCPRP | -0.278 |
| RRIRIRPPRLPRPRPRPYDPPRP | -0.0306 |
| RRIRRRPPRLPRPRPRPERLPRP | 0.474 |
| RRIRMRPPRLPRPRPRPCVDPRP | 0.0636 |

| Sequence | shrunken log2 fold change |
| --- | --- |
| RRIRVRPPRLPRPRPRPCVRPRP | 0.0421 |
| RRIRNRPPRLPRPRPRPGKAPRP | -0.181 |
| RRIRHRPPRLPRPRPRPQQIPRP | -0.0193 |
| RRIRLRPPRLPRPRPRPDLGPRP | -0.0612 |
| RRIRVRPPRLPRPRPRPFMPPRP | -0.355 |
| RRIRNRPPRLPRPRPRPHYHPRP | -0.142 |
| RRIRGRPPRLPRPRPRPDMYPRP | 0.0675 |
| RRIRQRPPRLPRPRPRPATIPRP | -0.123 |
| RRIRRRPPRLPRPRPRPNFAPRP | 0.0508 |
| RRIRPRPPRLPRPRPRPCAEPRP | 0.27 |
| RRIRYRPPRLPRPRPRPPCRPRP | -0.211 |
| RRIRARPPRLPRPRPRPPHMPRP | 0.661 |
| RRIRWRPPRLPRPRPRPKHTPRP | 0.578 |
| RRIRIRPPRLPRPRPRPCIVPRP | -0.562 |
| RRIRLRPPRLPRPRPRPEFHPRP | -0.113 |
| RRIRLRPPRLPRPRPRPIQCPRP | -0.301 |
| RRIRARPPRLPRPRPRPGLKPRP | 0.469 |
| RRIRHRPPRLPRPRPRPQFYPRP | -0.192 |
| RRIRERPPRLPRPRPRPETNPRP | -0.000368 |
| RRIRMRPPRLPRPRPRPSGVPRP | 0.0246 |
| RRIRGRPPRLPRPRPRPLVRPRP | 0.577 |
| RRIRMRPPRLPRPRPRPCSSPRP | -0.0756 |
| RRIRKRPPRLPRPRPRPYYVPRP | -0.197 |

| Sequence | shrunken log2 fold change |
| --- | --- |
| RRIRFRPPRLPRPRPRPHEKPRP | -0.0136 |
| RRIRRRPPRLPRPRPRPLQFPRP | 0.313 |
| RRIRFRPPRLPRPRPRPTTHPRP | -0.0585 |
| RRIRYRPPRLPRPRPRPCNPPRP | -0.217 |
| RRIRIRPPRLPRPRPRPAWKPRP | 0.123 |
| RRIRQRPPRLPRPRPRPQEGPRP | 0.0274 |
| RRIRCRPPRLPRPRPRPRLFPRP | 0.437 |
| RRIRGRPPRLPRPRPRPVEKPRP | 0.198 |
| RRIRRRPPRLPRPRPRPHDYPRP | -0.0628 |
| RRIRLRPPRLPRPRPRPKQQPRP | -0.134 |
| RRIRRRPPRLPRPRPRPEQIPRP | 0.0197 |
| RRIRIRPPRLPRPRPRPNEKPRP | -0.0849 |
| RRIRRRPPRLPRPRPRPYQTPRP | -0.071 |
| RRIRTRPPRLPRPRPRPQHQPRP | -0.132 |
| RRIRTRPPRLPRPRPRPRSNPRP | 0.186 |
| RRIRVRPPRLPRPRPRPSNTPRP | -0.417 |
| RRIRWRPPRLPRPRPRPAKMPRP | 0.519 |
| RRIRNRPPRLPRPRPRPFEEPRP | 0.0129 |
| RRIRYRPPRLPRPRPRPWLGPRP | -0.0293 |
| RRIRIRPPRLPRPRPRPFSKPRP | -0.05 |
| RRIRNRPPRLPRPRPRPGPSPRP | 0.516 |
| RRIRDRPPRLPRPRPRPNPCPRP | -0.328 |
| RRIRARPPRLPRPRPRPQMTPRP | 0.0889 |

| Sequence | shrunken log2 fold change |
| --- | --- |
| RRIRHRPPRLPRPRPRPSPVPRP | -0.0462 |
| RRIRNRPPRLPRPRPRPKMNPRP | -0.381 |
| RRIRWRPPRLPRPRPRPGWGPRP | 0.534 |
| RRIRARPPRLPRPRPRPNHRPRP | 0.00751 |
| RRIRNRPPRLPRPRPRPNESPRP | -0.121 |
| RRIRNRPPRLPRPRPRPDEPPRP | -0.061 |
| RRIRSRPPRLPRPRPRPWGCPRP | 0.032 |
| RRIRCRPPRLPRPRPRPAWIPRP | -0.197 |
| RRIRARPPRLPRPRPRPQFDPRP | 0.545 |
| RRIRIRPPRLPRPRPRPGKPPRP | 0.217 |
| RRIRYRPPRLPRPRPRPPLKPRP | -0.192 |
| RRIRVRPPRLPRPRPRPLKTPRP | -0.0304 |
| RRIRKRPPRLPRPRPRPHLCPRP | 0.0127 |
| RRIRARPPRLPRPRPRPYEDPRP | -0.117 |
| RRIRERPPRLPRPRPRPDHHPRP | -0.478 |
| RRIRGRPPRLPRPRPRPECAPRP | 2.14 |
| RRIRARPPRLPRPRPRPNAAPRP | 1.13 |
| RRIRWRPPRLPRPRPRPDYWPRP | 0.122 |
| RRIRARPPRLPRPRPRPYRNPRP | -0.222 |
| RRIRPRPPRLPRPRPRPKAGPRP | 0.285 |
| RRIRTRPPRLPRPRPRPPAWPRP | 0.663 |
| RRIRSRPPRLPRPRPRPVFGPRP | 0.0263 |
